From article PMC11208146, “Molecular basis for transposase activation by a dedicated AAA+ ATPase” (Nature, 2024)
Where “and” joins values, the source holds several entries; their conditions need not be identical. Equal entries are not always repeated.

Tests used:
[1] = molecular target: the molecule itself; experiment: cryo-EM structure; IstB wild type with a 60-mer duplex DNA (6.5:1) and 1 mM ATP; 20 mM HEPES pH 7.5, 150 mM NaCl, 5 mM MgCl2, 1 mM DTT; 3.2 Å
[2] = molecular target: the molecule itself; experiment: cryo-EM structure; IstA pre-incubated with strand-transfer-complex DNA (3.3:1), then IstB E167Q (5:1 to IstA), 37 °C; 20 mM HEPES pH 7.5, 150 mM NaCl, 5 mM MgCl2, 1 mM ATP, 1 mM DTT; 3.6 Å

B1: IstB ATPase, wild type, full length (IS5376, Geobacillus stearothermophilus) (enzyme, UniProt Q45619 1-251, looked up)
chain: MKERIHEYCHRLHLPVMAERWSAMAEYASTHNISYSEFLFRLLEAEIVEKQARSIQTLIKLSKLPYRKTIDTFDFTAQPSVDERRIRELLTLSFIDRKENILFLGPPGIGKTHLAISIGMEAIARGYKTYFITAHDLVNQLRRADQEGKLEKKLRVFVKPTVLIIDEMGYLKLDPNSAHYLFQVIARRYEHAPIILTSNKSFGEWGEIVGDSVLATAMLDRLLHHSIIFNLKGESYRLREKRLQEEKQKDQ
notes: IstB, AAA+ ATPase of the IS21 family member IS5376, Geobacillus stearothermophilus, full length; Tag cleaved on-column with PreScission protease; Assembles into a pentamer of dimers (decamer) on DNA with ATP; also called IstB WT; IstB AAA+ ATPase regulator; source: E. coli BL21 codon-plus (DE3) RIL, purified (Ni-Sepharose, amylose resin, gel filtration); not shown: His6, N-terminal, cleaved; MBP, …
[1]
  stoichiometry N: 10 and 8

B2: IstB E167Q (Walker B mutant) (enzyme, Geobacillus stearothermophilus, UniProt Q45619 1-251, looked up)
chain: MKERIHEYCHRLHLPVMAERWSAMAEYASTHNISYSEFLFRLLEAEIVEKQARSIQTLIKLSKLPYRKTIDTFDFTAQPSVDERRIRELLTLSFIDRKENILFLGPPGIGKTHLAISIGMEAIARGYKTYFITAHDLVNQLRRADQEGKLEKKLRVFVKPTVLIIDQMGYLKLDPNSAHYLFQVIARRYEHAPIILTSNKSFGEWGEIVGDSVLATAMLDRLLHHSIIFNLKGESYRLREKRLQEEKQKDQ
notes: IstB, AAA+ ATPase of IS5376, Geobacillus stearothermophilus, with the Walker B mutation E167Q; The methods describe only the purification of full-length IstB (His6-MBP tag, cleaved); also called WB; source: purified
[2]
  stoichiometry N: 10 and 20
